Assay results as given in patent publication US8173771B2, “Humanin receptor or humanin-like polypeptide receptor” (Keio Univeristy, priority 2005, dated 2012).

Legend:
Assay in all cases: In vitro pull-down assay with HN- or HNA-conjugated Sepharose 4B
Format in all cases: binding
IL-6 receptor = biological target: T1, IL-6 receptor (Rattus norvegicus, UniProt P22273); conditions: lysates of F11 cells overexpressing IL-6R
T1 construct: V6 (so in the source); probably V5); host or cells: F11 cells (lysate)
T1 sequence (P22273 20-462): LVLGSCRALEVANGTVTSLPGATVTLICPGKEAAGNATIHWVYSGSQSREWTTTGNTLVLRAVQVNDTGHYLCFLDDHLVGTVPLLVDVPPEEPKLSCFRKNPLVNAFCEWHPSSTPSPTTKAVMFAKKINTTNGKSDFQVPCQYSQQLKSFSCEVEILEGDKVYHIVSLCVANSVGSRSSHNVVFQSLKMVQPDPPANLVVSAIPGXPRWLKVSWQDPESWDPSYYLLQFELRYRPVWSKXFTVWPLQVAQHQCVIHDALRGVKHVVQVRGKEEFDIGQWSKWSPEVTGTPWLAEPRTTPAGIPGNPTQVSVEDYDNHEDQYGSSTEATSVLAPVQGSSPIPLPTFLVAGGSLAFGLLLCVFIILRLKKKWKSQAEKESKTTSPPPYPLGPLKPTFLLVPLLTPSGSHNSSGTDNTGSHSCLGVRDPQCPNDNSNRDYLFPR
Text: (§1) C) The photos show the results of in vitro pull down assay using HN- or HNA-conjugated Sepharose 4B bead. WSX-1, CNTF-R, and […] were over-expressed in F11 cells and the pull down assay was made using the above 4B bead. Immunoblot analysis was done using PO4 antibody against Humanin (lower panes). HN or HNA comprised in the above Sepharose 4B bead was compared with synthesized HN peptide (50 pmol) as a positive control.
(§2) F11 cells (7×10^4/well in 6-well plates) were transfected with the plasmids encoding mycHis-WSX-1, V5-CNTF-R or rat IL-6R (V6 tagged). At 48 hrs after transfection, the cells were harvested for pull-down assays with HN or HNA-conjugated Sepharose 4B. For conjugation of […] or HNA with Sepharose 4B, 3 ml of CNBr-activated Sepharose 4B was incubated with 0.5 mg of HN or HNA in a coupling buffer (0.1M NaHCO3 0.5M NaCl, pH8.3) overnight at 4° C. The beads were then reacted with a blocking buffer (0.2M glycine, pH 8.0) for 2 hrs at a room temperature, washed with the coupling buffer and stored at 4° C. for use in pull-down assay. For each pull-down assay, 20 μl of 1:1 slurry of Sepharose was used for 100 μl of the cell lysate.

WSX-1 = biological target: T2, WSX-1 (Homo sapiens, UniProt Q6UWB1); conditions: lysates of F11 cells overexpressing WSX-1
T2 construct: His; expressed in transfected cells; host or cells: F11 cells (lysate)
T2 sequence (Q6UWB1 33-636): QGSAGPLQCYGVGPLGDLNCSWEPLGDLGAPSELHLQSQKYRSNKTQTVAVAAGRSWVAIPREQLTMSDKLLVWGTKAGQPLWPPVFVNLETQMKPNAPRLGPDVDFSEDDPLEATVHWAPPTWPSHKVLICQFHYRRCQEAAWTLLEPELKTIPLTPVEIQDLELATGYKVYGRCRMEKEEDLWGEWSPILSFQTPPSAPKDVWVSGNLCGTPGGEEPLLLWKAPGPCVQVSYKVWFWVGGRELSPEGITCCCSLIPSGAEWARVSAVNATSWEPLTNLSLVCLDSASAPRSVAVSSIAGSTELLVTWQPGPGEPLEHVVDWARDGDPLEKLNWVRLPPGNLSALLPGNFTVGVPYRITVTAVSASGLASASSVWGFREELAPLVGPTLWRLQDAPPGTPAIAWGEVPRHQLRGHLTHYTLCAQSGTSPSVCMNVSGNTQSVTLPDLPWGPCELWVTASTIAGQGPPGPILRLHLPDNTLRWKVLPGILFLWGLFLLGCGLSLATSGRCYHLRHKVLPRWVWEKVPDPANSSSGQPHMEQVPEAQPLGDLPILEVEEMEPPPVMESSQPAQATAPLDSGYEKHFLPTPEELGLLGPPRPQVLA
Text: as §1, §2

CNTF receptor = biological target: T3, CNTF receptor (Homo sapiens, UniProt P26992); conditions: lysates of F11 cells overexpressing CNTF-R
T3 construct: V5 (C); host or cells: F11 cells (lysate)
T3 sequence (P26992 23-342): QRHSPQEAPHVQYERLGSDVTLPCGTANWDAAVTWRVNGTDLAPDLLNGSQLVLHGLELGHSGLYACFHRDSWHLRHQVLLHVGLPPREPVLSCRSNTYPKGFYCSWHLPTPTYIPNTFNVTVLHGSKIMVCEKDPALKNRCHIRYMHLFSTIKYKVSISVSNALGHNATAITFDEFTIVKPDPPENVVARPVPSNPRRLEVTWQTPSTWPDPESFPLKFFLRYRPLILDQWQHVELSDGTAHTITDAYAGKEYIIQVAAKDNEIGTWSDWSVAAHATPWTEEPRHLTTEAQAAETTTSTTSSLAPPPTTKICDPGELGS
Text: as §1, §2

C8A-Humanin (MAPRGFSALLLLTSEIDLPVKRRA) [HNA]
did not bind: binding in pull-down to IL-6 receptor (IL-6 receptor) | binding in pull-down to WSX-1 (WSX-1) | binding in pull-down to CNTF receptor (CNTF receptor)
